A short description of series [1]: limited trypsin digestion of plasma membranes ± α-factor, western blot. As to conditions: glycan lost; control: epitope-tagged receptors with intact sites. (In western blotting, separated proteins are transferred to a membrane and probed.)
The target of series [2] is T1, Ste2-F204S (S. cerevisiae) (UniProt D6VTK4).
T1 sequence: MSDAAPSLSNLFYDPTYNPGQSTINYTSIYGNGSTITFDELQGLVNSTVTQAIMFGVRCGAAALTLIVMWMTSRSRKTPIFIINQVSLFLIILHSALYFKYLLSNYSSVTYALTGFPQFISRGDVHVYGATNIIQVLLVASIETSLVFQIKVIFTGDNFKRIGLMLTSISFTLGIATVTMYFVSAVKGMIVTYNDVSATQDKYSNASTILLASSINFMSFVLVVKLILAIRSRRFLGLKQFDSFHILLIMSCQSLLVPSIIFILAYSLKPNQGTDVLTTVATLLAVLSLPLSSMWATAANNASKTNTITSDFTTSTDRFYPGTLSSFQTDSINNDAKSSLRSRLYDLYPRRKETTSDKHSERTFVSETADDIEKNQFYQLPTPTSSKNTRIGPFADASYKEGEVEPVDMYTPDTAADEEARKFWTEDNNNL

B1: α-factor receptor (Ste2): T7-Ste2-N25Q,N32Q (protein)
parent chain: MSDAAPSLSNLFYDPTYNPGQSTINYTSIYGNGSTITFDELQGLVNSTVTQAIMFGVRCGAAALTLIVMWMTSRSRKTPIFIINQVSLFLIILHSALYFKYLLSNYSSVTYALTGFPQFISRGDVHVYGATNIIQVLLVASIETSLVFQIKVIFTGDNFKRIGLMLTSISFTLGIATVTMYFVSAVKGMIVTYNDVSATQDKYFNASTILLASSINFMSFVLVVKLILAIRSRRFLGLKQFDSFHILLIMSCQSLLVPSIIFILAYSLKPNQGTDVLTTVATLLAVLSLPLSSMWATAANNASKTNTITSDFTTSTDRFYPGTLSSFQTDSINNDAKSSLRSRLYDLYPRRKETTSDKHSERTFVSETADDIEKNQFYQLPTPTSSKNTRIGPFADASYKEGEVEPVDMYTPDTAADEEARKFWTEDNNNL
In the case of B1, in series [1], the structure_or_conformation result is “no change”.

B2: Ste2-T326-GFP (receptor)
chain: MSDAAPSLSNLFYDPTYNPGQSTINYTSIYGNGSTITFDELQGLVNSTVTQAIMFGVRCGAAALTLIVMWMTSRSRKTPIFIINQVSLFLIILHSALYFKYLLSNYSSVTYALTGFPQFISRGDVHVYGATNIIQVLLVASIETSLVFQIKVIFTGDNFKRIGLMLTSISFTLGIATVTMYFVSAVKGMIVTYNDVSATQDKYFNASTILLASSINFMSFVLVVKLILAIRSRRFLGLKQFDSFHILLIMSCQSLLVPSIIFILAYSLKPNQGTDVLTTVATLLAVLSLPLSSMWATAANNASKTNTITSDFTTSTDRFYPGTLSS
The molecule B2 gave an endocytosis complementation assay: percent of co-expressing cells with one or more GFP fluorescent foci after α-factor treatment (fluorescence microscopy) in series [2] of over 80%.

The values are drawn from paper PMC3988799.
